Assays:
[1] = SSF of maltodextrins with added isomaltotriose, 24 h (Example 1); parameters: species or system Yeast (Deltaferm® AL-18); conditions: SSF 24 h, maltodextrin + 20 g/L isomaltotriose, enzyme 187.5 kU per ton
Description: (§1) Quantification of ethanol yield Ethanol was quantified via HPLC. Samples were taken at the end of the SSF or during SSF at set time points. Samples were centrifuged for 1 min at 17,000 xg and sterile filtered (0.2 μm). The samples were frozen at −80° C. prior to measurements. Ethanol was determined with an Aminex 87C column (Bio-Rad Laboratories, Inc., US) on a Shimadzu HPLC system.
For simultaneous saccharification and fermentation (abbreviated SSF), the oligo-1,6-glucosidases—either Agl1 or Gth—were used as crude Bacillus extract. Glucidex® Maltodextrin 12 (Roquette, FR) was dissolved in SSF-medium (5 g/L yeast extract, 5 g/L peptone, 1 g/L K2HIPO4, 0.5 g/L Mg2SO4 in 50 mM citrate buffer, pH 4.8) at 300 g/L. Panose, isomaltose, isomaltotriose, maltose, maltotriose, or trehalose was added at 20 g/L. As a positive control, 20 g/L glucose was added instead of the respective sugar. The SSF medium containing starch hydrolysate (maltodextrins) and sugars was sterile filtered (0.2 μm). Yeast (Deltaferm® AL-18, WeissBioTech GmbH, Ascheberg, Germany) was grown in YINaC medium (50 g/L dextrose, 5 g/L yeast extract, 5 g/L peptone, 1 g/L K2HPO4, 0.5 g/L Mg2SO4*7H2O, 2 g/L NH4Cl in 50 mM sodium citrate, pH 4.8) for 2 days at 37° C. and harvested by centrifugation for 15 min at 5100 rpm and 8° C. Pelleted yeast was added to the SSF-medium at a final concentration of 6 g/L. Glucoamylase (Deltazym® GA L-E5, WeissBioTech GmbH, Ascheberg, Germany) was added at 40 g per ton of dry starch equivalent. The enzyme product Agl1 or Gth was added up to a final concentration of 187.5 kU per ton of dry starch equivalent. For the SSF with trehalose, Agl1 or Gth was added at 937.5 kU per ton of dry starch equivalent. As a negative control, an SSF as described above was run without oligo-1,6-glucosidase/enzyme product. The SSF was performed at 30° C. without stirring or shaking for 24 h.

[2] = Industry-relevant SSF of maltodextrins with added panose, 72 h (Example 2); parameters: species or system Yeast (Deltaferm® AL-18); conditions: SSF 72 h, maltodextrin + 20 g/L panose, glucoamylase 400 g/t, enzyme 187.5 kU per ton
Description: as §1
For the SSF, the enzyme product was used as crude Bacillus extract. Glucidex® Maltodextrin 12 was dissolved in SSF medium (5 g/L yeast extract, 5 g/L peptone, 1 g/L K2HIPO4, 0.5 g/L Mg2SO4 in 50 mM citrate buffer, pH 4.8) at 300 g/L. Panose was added at 20 g/L. As a positive control, 20 g/L glucose was added. The SSF medium containing starch and sugars was sterile filtered (0.2 μm). Yeast (Deltaferm® AL-18, WeissBioTech GmbH, Ascheberg, Germany) was grown in YINaC medium (50 g/L dextrose, 5 g/L yeast extract, 5 g/L peptone, 1 g/L K2HPO4, 0.5 g/L Mg2SO4*7H2O, 2 g/L NH4Cl in 50 mM sodium citrate, pH 4.8) for 2 days at 37° C. and harvested by centrifugation for 15 min at 5100 rpm and 8° C. Pelleted yeast was added to the SSF at a final concentration of 6 g/L. Glucoamylase (Deltazym® GA L-E5, WeissBioTech GmbH, Ascheberg, Germany) was added at 400 g per ton of dry starch equivalent. The enzyme product Agl1 or Gth was added to a final concentration of 187.5 kU per ton of dry starch equivalent. As a negative control, no oligo-1,6-glucosidase/enzyme product was added. The SSF was performed at 30° C. without stirring or shaking for 72 h.

[3] = SSF of commercial liquefied starch, 72 h (Example 3); parameters: species or system Yeast (Deltaferm® AL-18); conditions: SSF 72 h, commercial liquefied starch 300 g/L, glucoamylase 200 g/t, enzyme 187.5 kU per ton
Description: as §1
Residual sugars were quantified via HPLC. Samples were taken at the end of the SSF or during SSF at set time points. Samples were centrifuged for 1 min at 17 000 xg and sterile filtered (0.2 μm). The samples were frozen at −80° C. prior to measurements. Residual sugars were determined with a Zorbax NH2 column (Agilent Technologies, Inc., US) on an Agilent 1200 HPLC system.
Liquefied starch was analysed prior to use on a Zorbax NH2 column (Agilent Technologies, Inc., US) for analysis of mono-, di- and trisaccharide type and content, and on an Aminex 42A column (Bio-Rad Laboratories, Inc., US) for analysis of degree of polymerisation (DP) detecting DP1-DP6 content. IPLC was performed on a Shimadzu IPLC system.
For SSF, the enzyme product was used as crude Bacillus extract. Acidified liquefied starch (pH 2.0) from a commercial plant, containing no detectable amounts of panose, isomaltose, isomaltotriose or trehalose, was brought to pH 4.8. SSF medium components (5 g/L yeast extract, 5 g/L peptone, 1 g/L K2HIPO4, 0.5 g/L Mg2SO4 in 50 mM citrate buffer, pH 4.8) were added to liquefied starch (300 g/L). The SSF medium containing starch was sterile filtered (0.2 μm). Yeast (Deltaferm® AL-18, WeissBioTech GmbH, Ascheberg, Germany) was grown in YINaC medium (50 g/L dextrose, 5 g/L yeast extract, 5 g/L peptone, 1 g/L K2HPO4, 0.5 g/L Mg2SO4*7H2O, 2 g/L NH4Cl in 50 mM sodium citrate, pH 4.8) for 2 days at 37° C. and harvested by centrifugation for 15 min at 5100 rpm and 8° C. Pelleted yeast was added to the SSF at a final concentration of 6 g/L. Glucoamylase (Deltazym® GA L-E10, WeissBioTech GmbH, Ascheberg, Germany) was added at 200 g per ton of dry starch equivalent. The enzyme product Agl1 or Gth was added to a final concentration of 187.5 kU per ton of dry starch equivalent. As control, no oligo-1,6-glucosidase/enzyme product was added. The SSF was performed at 30° C. without stirring or shaking for 72 h.

[4] = Temperature range of enzyme activity; type: biochemical; conditions: 30° C.-80° C. investigated
Description: The temperature range was investigated from 30° C.-80° C. by incubating the enzymes and measuring their activity at the respective temperature.

[5] = Lab-scale SSF run with 32% dextrins supplemented with panose; parameters: species or system alcohol yeasts (Deltaferm® AL-18); conditions: 30° C., pH 4.8, 72 h, glucoamylase 415 g/t, yeast 6 g/L
[6] = SSF of maltodextrins with added isomaltose, 24 h (Example 1); parameters: species or system Yeast (Deltaferm® AL-18); conditions: SSF 24 h, maltodextrin + 20 g/L isomaltose, enzyme 187.5 kU per ton
Description: as §1
For simultaneous saccharification and fermentation (abbreviated SSF), the oligo-1,6-glucosidases—either Agl1 or Gth—were used as crude Bacillus extract. Glucidex® Maltodextrin 12 (Roquette, FR) was dissolved in SSF-medium (5 g/L yeast extract, 5 g/L peptone, 1 g/L K2HIPO4, 0.5 g/L Mg2SO4 in 50 mM citrate buffer, pH 4.8) at 300 g/L. Panose, isomaltose, isomaltotriose, maltose, maltotriose, or trehalose was added at 20 g/L. As a positive control, 20 g/L glucose was added instead of the respective sugar. The SSF medium containing starch hydrolysate (maltodextrins) and sugars was sterile filtered (0.2 μm). Yeast (Deltaferm® AL-18, WeissBioTech GmbH, Ascheberg, Germany) was grown in YINaC medium (50 g/L dextrose, 5 g/L yeast extract, 5 g/L peptone, 1 g/L K2HPO4, 0.5 g/L Mg2SO4*7H2O, 2 g/L NH4Cl in 50 mM sodium citrate, pH 4.8) for 2 days at 37° C. and harvested by centrifugation for 15 min at 5100 rpm and 8° C. […]

Row | Molecule | ethanol concentration increase by % compared to the negative control [1] [%] | ethanol concentration increase compared to the negative control [1] | ethanol concentration increase by % compared to the negative control [2] [%] | ethanol concentration increase compared to the negative control [2] | ethanol concentration increase by % compared to the negative control [3] [%] | ethanol concentration increase compared to the negative control [3] | temperature range [4] | increase of ethanol yield [5] [%] | ethanol concentration increase by % compared to the negative control [6] [%] | ethanol concentration increase compared to the negative control [6]
1 | Gth: oligo-1,6-glucosidase of Parageobacillus thermoglucosidasius, amino acid sequence SEQ ID NO:2, expressed in Bacillus subtilis (protein, listed as Parageobacillus thermoglucosidasius, WP_042386239.1 alpha-glucosidase) MERVWWKEAVVYQIYPRSFYDSNGDGIGDIRGIIAKLDYLKELGVDVVWLSPVYKSPNDDNGYDISDYRDIMDEFGTMADWKTMLEEMHKRGIKLVMDLVVNHTSDEHPWFIESRKSKDNPYRDYYIWRPGKNGKEPNNWESVFSGSAWEYDEMTGEYYLHLFSKKQPDLNWENPKVRREVYEMMKFWLDKGVDGFRMDVINMISKVPELPDGEPQSGKKYASGSRYYMNGPRVHEFLQEMNREVLSKYDIMTVGETPGVTPKEGILYTDPSRRELNMVFQFEHMDLDSGPGGKWDIRPWSLADLKKTMTKWQKELEGKGWNSLYLNNHDQPRAVSRFGDDGKYRVESAKMLATFLHMMQGTPYIYQGEEIGMTNVRFPSIEDYRDIETLNMYKERVEEYGEDPQEVMEKIYYKGRDNARTPMQWDDSENAGFTAGTPWIPVNPNYKEINVKAALEDPNSVFHYYKKLIQLRKQHDIIVYGTYDLILEDDPYIYAYTRTLGNEQLIVITNFSEKTPVFRLPDHIIYKTKELLISNYDVDEAEELKEIRLRPWEARVYKIRLP | 48 | 0.57 percentage points (v/v) | 15 | 1.77 percentage points (v/v) | 4 | 0.47 percentage points (v/v) | 30-70 °C | 2 |  | 
2 | Agl1: oligo-1,6-glucosidase of Bifidobacterium breve UCC2003, amino acid sequence SEQ ID NO:1, expressed in Bacillus subtilis (protein, Bifidobacterium breve UCC2003; ACM89182.1 alpha-glucosidase 1) MMTTFNRAIIPDAIRTNGATPNPWWSNAVVYQIYPRSFQDTNGDGFGDLKGITSRLDYLADLGVDVLWLSPVYKSPQDDNGYDISDYQDIDPLFGTLDDMDELLAEAHKRGLKVVMDLVVNHTSDEHAWFEASKNKDDEHADWYWWRPARPGTTPGEPGSEPNQWGSYFGGSAWEYCPERGEYYLHQFSKKQPDLNWENPAVRRAVYDMMNWWLDRGIDGFRMDVITLISKRTDANGRLPGEYGSELDDLPVGEEGYSNPNPFCADGPRQDEFLKEMRREVFAGREGFLTVGEAPGITPVRNEHITNPANGELDMLFLFDHVDFDCDGVKWKPLPLDLPGFKRIMAGYQTAVENVGWASLFTGNHDQPRVVSRWGDDSSEESRVRSAKALGLMLHMHRGTPYVYQGEELGMTNAHFTSLDQYRDLESLNAYRQRVEEAKVQSPESMLAGIAARGRDNSRTPMQWDGSAYAGFTAPDAATEPWISVNPNHAEINAAGEFDDPDSVYAFYKKLIALRHNSSIVAAGEWQLIDADDAHVYAFTRTLGNERLLVVVNLSGRTVDLPRESTELIAGGVTEPDIILSTYDAPHTVVSLANRELDPWEAAAVQL | 40 | 0.48 percentage points (v/v) | 8 | 1.16 percentage points (v/v) | 2 | 0.30 percentage points (v/v) | 30-50 °C | 2 | 74 | 0.98 percentage points (v/v)

Reference: patent publication US20230002798A1, “PROCESS FOR THE PREPARATION OF A FERMENTABLE SUGAR COMPOSITION AND THE FERMENTATION THEREOF” (WeissBioTech GmbH, priority 2019, published 2023)
